Results: patent US20260167959A1, “APTAZYME-BASED REGULATABLE GENE EXPRESSION SYSTEMS” (REJUVENATE BIO INC, priority 2022, published 2026)

B1: RA463 (nucleic acid)
DNA: GCGCGTCCTGGATTCGCGGAAACGCGTACATCCAGCTGACGAGTCGAGAATACCAGCATCGTCTTGATGCCCTTGGAAGTCTCGCCCAAATAGGACGAAACGCGC
modifications: expressed or natural sequence
B2: RA467 (nucleic acid)
DNA: GCGCGTCCTGGATTCGCGGAAACGAGAATACCAGCATCGTCTTGATGCCCTTGGAAGTCTCGTACATCCAGCTGACGAGTCCCAAATAGGACGAAACGCGC
modifications: expressed or natural sequence
B3: RA469 (nucleic acid)
DNA: GCGAGAATACCAGCATCGTCTTGATGCCCTTGGAAGTCTCGCGCGTCCTGGATTCGCGGAAACGCGTACATCCAGCTGACGAGTCCCAAATAGGACGAAACGCGC
modifications: expressed or natural sequence
B4: RA462 (nucleic acid)
DNA: GCGCGTCCTGGATTCGCGCCGGAATACCAGCATCGTCTTGATGCCCTTGGAAGTCCGGGAAACGCGTACATCCAGCTGACGAGTCCCAAATAGGACGAAACGCGC
modifications: expressed or natural sequence
B5: RA452 (nucleic acid)
DNA: GCGCGTCCTGGAGAATACCAGCATCGTCTTGATGCCCTTGGAAGTCTATTCGCGGAAACGCGTACATCCAGCTGACGAGTCCCAAATAGGACGAAACGCGC
modifications: expressed or natural sequence
B6: RA458 (nucleic acid)
DNA: GCGCGTCCTGGATTCGCGGAAACGCGTACATCCAGCTGACGAGTCCCAAATAGGACGAACCGGAATACCAGCATCGTCTTGATGCCCTTGGAAGTCCGGACGCGC
modifications: expressed or natural sequence
B7: RA457 (nucleic acid)
DNA: GCGCGTCCTGGATTCGCGGAAACGCGTACATCCAGCTGACGAGTCCCAAATAGGACGAAGTGATACCAGCATCGTCTTGATGCCCTTGGCAGCACTAACGCGC
modifications: expressed or natural sequence
B8: RA454 (nucleic acid)
DNA: GCGCGTCCTGGATTCGCGGAAACGCGTACATCCAGCTGACGAGTCCAGAATACCAGCATCGTCTTGATGCCCTTGGAAGTCTCAAATAGGACGAAACGCGC
modifications: expressed or natural sequence
B9: RA476 (nucleic acid)
DNA: GCGCGTCCTGGATTCGCGGAAACGCGTACATCCAGCTGACGAGTCCCAAATAGGACGAAAAGAATACCAGCATCGTCTTGATGCCCTTGGAAGTCTCGCGC
modifications: expressed or natural sequence
B10: RA472 (nucleic acid)
DNA: GCGCGTCCTGGATTCGCGGAAACGCGTACATCCAGCTGACGAGTCCCAAATAGAGAATACCAGCATCGTCTTGATGCCCTTGGAAGTCTCGGACGAAACGCGC
modifications: expressed or natural sequence
B11: RA473 (nucleic acid)
DNA: GCGCGTCCTGGATTCGCGGAAACGCGTACATCCAGCTGACGAGTCCCAAATAGTGATACCAGCATCGTCTTGATGCCCTTGGCAGCACTAGGACGAAACGCGC
modifications: expressed or natural sequence
B12: RA455 (nucleic acid)
DNA: GCGCGTCCTGGATTCGCGGAAACGCGTACATCCAGCTGACGAGTCCCCGGAATACCAGCATCGTCTTGATGCCCTTGGAAGTCCGGCAAATAGGACGAAACGCGC
modifications: expressed or natural sequence
B13: RA474 (nucleic acid)
DNA: GCGCGTCCTGGATTCGCGGAAACGCGTACATCCAGCTGACGAGTCCCAAATAGGACGAAACGCGCGGAATACCAGCATCGTCTTGATGCCCTTGGAAGTCCGC
modifications: expressed or natural sequence
B14: RA451 (nucleic acid)
DNA: GCGCGTCCTGGATTCGCGGAAGAATACCAGCATCGTCTTGATGCCCTTGGAAGTCTAACGCGTACATCCAGCTGACGAGTCCCAAATAGGACGAAACGCGC
modifications: expressed or natural sequence
B15: RA475 (nucleic acid)
DNA: GCGCGTCCTGGATTCGCGGAAACGCGTACATCCAGCTGACGAGTCCCAAATAGGACGAAACGCGAGAATACCAGCATCGTCTTGATGCCCTTGGAAGTCTCGC
modifications: chemistry not given here
B16: RA461 (nucleic acid)
DNA: GCGCGTCCTGGATTCGCGGAAACGCGTACATCCAGGAGAATACCAGCATCGTCTTGATGCCCTTGGAAGTCTCCTGACGAGTCCCAAATAGGACGAAACGCGC
modifications: expressed or natural sequence
B17: RA456 (nucleic acid)
DNA: GCGCGTCCTGGATTCGCGGAAACGCGTACATCCAGCTGACGAGTCCCAAATACCGGAATACCAGCATCGTCTTGATGCCCTTGGAAGTCCGGGGACGAAACGCGC
modifications: expressed or natural sequence
B18: RA471 (nucleic acid)
DNA: GCGCGTCCTGGATTCGCGGAAACGCGTACATCCAGCTGACGAGTCCCAAATAGGACCGAGAATACCAGCATCGTCTTGATGCCCTTGGAAGTCTCGGAAACGCGC
modifications: expressed or natural sequence
B19: RA459 (nucleic acid)
DNA: GCGCGTCCTGGATTCGCGGAAACGCGTACATCCAGCTGACGAGTCCCAAATAGGACGAAGGAATACCAGCATCGTCTTGATGCCCTTGGAAGTCCACGCGC
modifications: expressed or natural sequence
B20: RA464 (nucleic acid)
DNA: GCGCGTCCTGGAGTGATACCAGCATCGTCTTGATGCCCTTGGCAGCACTATTCGCGGAAACGCGTACATCCAGCTGACGAGTCCCAAATAGGACGAAACGCGC
modifications: expressed or natural sequence
B21: RA468 (nucleic acid)
DNA: GCGCGTCCTGGATTCGCGGAAACGCGTACATCCAGCCGAGAATACCAGCATCGTCTTGATGCCCTTGGAAGTCTCGTGACGAGTCCCAAATAGGACGAAACGCGC
modifications: expressed or natural sequence; listed as DNA, chemistry not fully specified
B22: RA470 (nucleic acid)
DNA: GCGCGTCCTGGATTCGCGGAAACCGAGAATACCAGCATCGTCTTGATGCCCTTGGAAGTCTCGGCGTACATCCAGCTGACGAGTCCCAAATAGGACGAAACGCGC
modifications: expressed or natural sequence
B23: RA453 (nucleic acid)
DNA: GCGCGTCCTGGATTCGCGGAAACGCGTACATCCAGCTGACGAGTCCCAAATAGGACGAAACAGAATACCAGCATCGTCTTGATGCCCTTGGAAGTCTGCGC
modifications: expressed or natural sequence
B24: RA466 (nucleic acid)
DNA: GCGCGTCCTGGATTCGCGGAACGGAATACCAGCATCGTCTTGATGCCCTTGGAAGTCCGACGCGTACATCCAGCTGACGAGTCCCAAATAGGACGAAACGCGC
modifications: expressed or natural sequence
B25: RA460 (nucleic acid)
DNA: GCGCGTCCTGGATTCGCAGTGATACCAGCATCGTCTTGATGCCCTTGGCAGCACTGGAAACGCGTACATCCAGCTGACGAGTCCCAAATAGGACGAAACGCGC
modifications: expressed or natural sequence
B26: RA465 (nucleic acid)
DNA: GCGCGTCCTGGATTCGCGGAAACGCGTACATCCAGCTGACCGAGAATACCAGCATCGTCTTGATGCCCTTGGAAGTCTCGGAGTCCCAAATAGGACGAAACGCGC
modifications: expressed or natural sequence
B27: RA046 (nucleic acid)
DNA: GCGCGTCCTGGATTCGCGGAAACGCGTACATCCAGCTGACGAGTCCGGAATACCAGCATCGTCTTGATGCCCTTGGAAGTCCGCCAAATAGGACGAAACGCGC
modifications: expressed or natural sequence
B28: RA045 (nucleic acid)
DNA: GAGAATACCAGCATCGTCTTGATGCCCTTGGAAGTCTCGCGCGTCCTGGATTCGCGGAAACGCGTACATCCAGCTGACGAGTCCCAAATAGGACGAAACGCGC
modifications: expressed or natural sequence

Tested on: Renilla luciferase RNA
Assay: Barcoded aptazyme variant library screen: un-cleaved Renilla luciferase RNA by barcode read counts, HEK293-T cells
Assay type: cell-based
Conditions: un-cleaved Renilla luciferase RNA by barcode read counts; with 1 mM theophylline (ON) over without theophylline (OFF); HEK293-T cells; triplicate
In short: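 Barcode sequencing of cDNA versus DNA, normalized per aptazyme, gave the un-cleaved Renilla luciferase RNA fraction and fold-change with versus without theophylline (triplicates). Library: T3H48 ribozyme with one of seven theophylline aptamer variants inserted at each position, placed in the Renilla 3′ UTR of a dual-luciferase vector.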

Point of comparison: B24, “Fold change in RNA expression between the ON state and the OFF state” value 0.4. Against it:
- B1 — the same, 0.4
- B2 — the same, 0.4
- B3 — the same, 0.4
- B4 — the same, 0.4
- B5 — higher, 0.5
- B6 — higher, 0.5
- B7 — higher, 0.5
- B8 — higher, 0.5
- B9 — lower, 0.2
- B10 — lower, 0.3
- B11 — lower, 0.3
- B12 — higher, 0.5
- B13 — lower, 0.3
- B14 — higher, 0.5
- B15 — lower, 0.3
- B16 — higher, 0.5
- B17 — higher, 0.5
- B18 — the same, 0.4
- B19 — higher, 0.5
- B20 — the same, 0.4
- B21 — the same, 0.4
- B22 — the same, 0.4
- B23 — higher, 0.5
- B25 — higher, 0.5
- B26 — the same, 0.4

Same assay, conditions: un-cleaved Renilla luciferase RNA, HEK293-T cells cultured with 1 mM theophylline (ON) over without theophylline (OFF); barcode read counts, triplicate

Point of comparison: B27, “Fold change in RNA expression between the ON state and the OFF state” value 2.0 fold. Against it:
- B28 — the same, 2.0 fold
